Experiments:
[1] = test system: CC(=O)Oc1ccc([N+](=O)[O-])cc1; test: purified protein, by the assay type; details: other: pH 8.0 (optimum pH), substrate p-nitrophenyl acetate, error limit ± 10%
[2] = Hydrolysis of esters by artificial chymotrypsin (Lineweaver-Burk); assay type: biochemical; details: substrate m-t-butylphenyl acetate
From the text: The chymotrypsin model was examined for its catalytic activity in ester hydrolysis.
In FIG. 2 plot A represents the hydrolysis of p-nitrophenyl acetate by chymotrypsin and plot B represents the hydrolysis of m-t-butylphenyl acetate by the miniature organic model of chymotrypsin. [EA ]=1×10^-5 M; [EB ]=3×10^-5 M.
FIG. 3 depicts the relative stability of both β-benzyme/m-t-butylphenyl acetate and α-chymotrypsin/p-nitrophenyl acetate (O) at elevated temperatures. The real enzyme has 245 amino acids whose conformation can be changed by disrupting hydrogen bonds by elevated temperature. In contrast, the artificial chymotrypsin has no amino acids. Abbreviations are explained by the equation [formula] The stability was obtained by determining the catalytic rate constant at various temperatures at pH 8.0 for chymotrypsin, using 400 nm with a Varian 200 spectrophotometer. β-benzyme activity for the artificial enzyme was determned at its optimum pH 10.7 and 288 nm.

chymotrypsin (real enzyme, α-chymotrypsin) (Bos taurus)
Km [1]: 40 µM | kcat [1]: 0.011 s⁻¹ | kcat/Km [1]: 275 M⁻¹ s⁻¹

CC(=O)Oc1cccc(C(C)(C)C)c1 [m-t-butylphenyl acetate]
kcat ([2]; pH 10.7 (optimum pH), error limit ± 5%): 0.028 s⁻¹ | Km ([2]; pH 10.7 (optimum pH), error limit ± 10%): 133 µM | kcat/Km ([2]; pH 10.7): 210 M⁻¹ s⁻¹
